The nature of the data set: protein stability index of a GFP-peptide fusion (GPS, HEK-293T) (PSI 1-6); higher = more stable. As to conditions: c terminus: a fixed tail appended.

± gives the standard deviation.
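Note: 24-mer peptide tiles fused after GFP, lentivirally expressed, FACS-sorted into six equal bins by GFP/DsRed ratio, decoded by Illumina sequencing, PSI is the read-weighted mean bin number.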

Take PKKSAPSAVARSNSWMGSQGPMSQ [RBMY1A1]: the protein stability index reads like this: (treatment: DMSO) 4.08 ± 0.13; (treatment: MLN4924 1 uM, 8 h) 4.28 ± 0.2.

For LRTLRDFPAEERARVLDRRGCSRV [ANKRD9], the protein stability index is 3.91 ± 0.32 (treatment: DMSO) and 4.06 ± 0.29 (treatment: MLN4924 1 uM, 8 h).

With KSFSMANGLNARMMHGGSYSLTTS [RAB40B], the protein stability index is, setting by setting: (treatment: DMSO) 3.1 ± 0.2; (treatment: MLN4924 1 uM, 8 h) 3.18 ± 0.2.

Take LDVGATEGQDLQHISNQKMPTGPP [DRICH1]: the protein stability index (treatment: DMSO) was determined as 5.18 ± 0.094 and the protein stability index (treatment: MLN4924 1 uM, 8 h) was 5.21 ± 0.091.

As to LLCLRAVTHREGAPPLPGAESFPG [PLEKHN1], the protein stability index is, setting by setting: (treatment: DMSO) 3.08 ± 0.23; (treatment: MLN4924 1 uM, 8 h) 3.11 ± 0.067.

For the sequence ATYIFIFIGETLLSMNWAIVADIL [SPNS1], the protein stability index is, setting by setting: (treatment: DMSO) 3.13 ± 0.39; (treatment: MLN4924 1 uM, 8 h) 2.68 ± 0.74.

For the sequence HKLVSASTDNIVSQWDVLSGDCDQ [RBBP5], the protein stability index is, setting by setting: (treatment: DMSO) 4.73 ± 0.18; (treatment: MLN4924 1 uM, 8 h) 4.68 ± 0.11.

With RLIRELAEFEKLSDQVKISEEALR [SAT2], the protein stability index turned out to be 3.16 ± 0.35 (treatment: DMSO) and 3.43 ± 0.3 (treatment: MLN4924 1 uM, 8 h).

As for NAVRSAMKSEEQKIKDARKGPLVP [KMT5A], the protein stability index came out at 4.75 ± 0.11 (treatment: DMSO) and 5.07 ± 0.13 (treatment: MLN4924 1 uM, 8 h).

As for IQEQKVVLEENGEKNQVQLGKLEA [SASS6], the protein stability index is, setting by setting: (treatment: DMSO) 5.2 ± 0.22; (treatment: MLN4924 1 uM, 8 h) 5.42 ± 0.3.

Turning to PSAALTTMQLFSKQNPSRQEVTKL [FBXO28], the protein stability index by setting is: (treatment: DMSO) 4.16 ± 0.37; (treatment: MLN4924 1 uM, 8 h) 4.37 ± 0.23.

Turning to PNLSPHAPWNYHYHCPGSPDHQVP [TRAF3IP2], the protein stability index worked out at 3.29 ± 0.34 (treatment: DMSO) and 3.54 ± 0.32 (treatment: MLN4924 1 uM, 8 h).

KRAESDSRKSSIPNNKEIPSHHPT [PTPRD]: the protein stability index (treatment: DMSO) worked out at 5.151 ± 0.046 and the protein stability index (treatment: MLN4924 1 uM, 8 h) was found to be 5.08 ± 0.078.

Consider VSGSHFVGVDGVRAFLQTYSHEVS [PCDHGA10], for which the protein stability index by setting is: (treatment: DMSO) 2.49 ± 0.27; (treatment: MLN4924 1 uM, 8 h) 2.24 ± 0.24.

Take VSEWASKAKANGITMYAVGVGKAI [MATN2]: the protein stability index is, setting by setting: (treatment: DMSO) 2.33 ± 0.3; (treatment: MLN4924 1 uM, 8 h) 2.36 ± 0.2.

Take KERLLLSAAVPAGQTYVDAGYEVD [CHIT1]: the protein stability index (treatment: DMSO) is 4.67 ± 0.15 and the protein stability index (treatment: MLN4924 1 uM, 8 h) came to 4.67 ± 0.12.

For the sequence QNHGQHLILSREASWAKPHYEFNL [LCOR], the protein stability index is, setting by setting: (treatment: DMSO) 2.28 ± 0.23; (treatment: MLN4924 1 uM, 8 h) 2.51 ± 0.35.

Regarding SSSTPLEDEEPQEPNRLETGEAGE [RTN2], the protein stability index by setting is: (treatment: DMSO) 5.51 ± 0.34; (treatment: MLN4924 1 uM, 8 h) 5.56 ± 0.3.

Turning to MAKKHKKIRLRCQKGIPPSLRGRA [TBC1D10A], the protein stability index stood at 3.29 ± 0.18 (treatment: DMSO) and 3.35 ± 0.29 (treatment: MLN4924 1 uM, 8 h).

As to EDHFPLLFSEASECMLLVFGIDVK [MAGEA10], the protein stability index was 2.73 ± 0.84 (treatment: DMSO) and 2.7 ± 0.77 (treatment: MLN4924 1 uM, 8 h).

For the sequence STFSSGPSDKMKWCLRVNPKGLDD [SPOPL], the protein stability index runs as follows: (treatment: DMSO) 2.73 ± 0.5; (treatment: MLN4924 1 uM, 8 h) 3 ± 0.47.

In the case of GLQSYQQALLRISLDKVQRSLGPR [SERTAD3], the protein stability index is, setting by setting: (treatment: DMSO) 2.43 ± 0.27; (treatment: MLN4924 1 uM, 8 h) 2.26 ± 0.36.

Take GHRSIYLALKLPDGSYALNGEYTL [ADAMTS4]: the protein stability index is, setting by setting: (treatment: DMSO) 2.96 ± 0.94; (treatment: MLN4924 1 uM, 8 h) 2.63 ± 0.67.

For GNPEPVSYYIIQHKPKNSEELYKE [PTPRD], the protein stability index is, setting by setting: (treatment: DMSO) 3.77 ± 0.34; (treatment: MLN4924 1 uM, 8 h) 3.47 ± 0.54.

For TSCLKKREEMKLKECVSILPRKES [TNFSF13B], the protein stability index runs as follows: (treatment: DMSO) 4.42 ± 0.15; (treatment: MLN4924 1 uM, 8 h) 4.5 ± 0.15.

In the case of FGPGQTLLSSVHVLDLEARGYIKP [ALKBH7], the protein stability index is 2.43 ± 0.24 (treatment: DMSO) and 2.67 ± 0.3 (treatment: MLN4924 1 uM, 8 h).

SLSLRLPHQPVTAITRVSDRFSGE [SMTNL2]: the protein stability index is, setting by setting: (treatment: DMSO) 3.8 ± 0.28; (treatment: MLN4924 1 uM, 8 h) 4.16 ± 0.1.

For the sequence SSCYPLIPSTPEEVSADDETPNPP [MAGEA10], the protein stability index was 5.46 ± 0.31 (treatment: DMSO) and 5.44 ± 0.27 (treatment: MLN4924 1 uM, 8 h).

With YEMTDLTNNKVYAAKIIPHSRVAK [PLK2], the protein stability index amounted to 3.78 ± 0.092 (treatment: DMSO) and 4.05 ± 0.28 (treatment: MLN4924 1 uM, 8 h).

Regarding EKKLTVRQDLEDRYAEHVAATQAL [C22orf31], the protein stability index worked out at 4.55 ± 0.12 (treatment: DMSO) and 4.53 ± 0.21 (treatment: MLN4924 1 uM, 8 h).

DMAGKIKLWDLRTTKCVRQYEGHV [DCAF4]: the protein stability index amounted to 2.56 ± 0.18 (treatment: DMSO) and 2.68 ± 0.35 (treatment: MLN4924 1 uM, 8 h).

Turning to DFNLCLFYLPSSPNLSLASEDEEE [SMG5], the protein stability index (treatment: DMSO) is 2.85 ± 0.21 and the protein stability index (treatment: MLN4924 1 uM, 8 h) stood at 3.14 ± 0.24.

For the sequence LAEMKDDSDSEKQQQIHHIKNLYA [VPS39], the protein stability index came out at 4.16 ± 0.25 (treatment: DMSO) and 4.35 ± 0.44 (treatment: MLN4924 1 uM, 8 h).

As for PTVIRNVGLGTCSMFSRVGGIIAP [SLC22A15], the protein stability index reads like this: (treatment: DMSO) 2.34 ± 0.3; (treatment: MLN4924 1 uM, 8 h) 2.23 ± 0.47.

Take GRSGPGCAVLDDSIYLVGGYSWSM [KLHL14]: the protein stability index worked out at 2.7 ± 0.39 (treatment: DMSO) and 2.38 ± 0.63 (treatment: MLN4924 1 uM, 8 h).

Consider LTTCTSNVAASNAKLALFYDWLFF [INTS3], for which the protein stability index runs as follows: (treatment: DMSO) 2.33 ± 0.45; (treatment: MLN4924 1 uM, 8 h) 2.66 ± 0.54.

These data come from the supplement of paper PMC10567573.
